Three molecules from patent US20120316071A1 (published 2012) can be followed below.

Changes are numbered by the printed parent chain.

For test [1], the target named is T1, rHuman ErbB2/Fc Chimera, CF (R&D Systems Cat#1129-ER) (human, UniProt P04626 23-652).
T1 construct: Bought from R&D Systems; also called human epidermal growth factor 2 receptor (ErbB2); not shown: Fc of the bought chimera
The experiment in a line: MSD multispot ECL, antigen spotted on plate, Fab 705 nM; blank spot 483.

For test [2], the target named is T2, Recombinant Human DLL4 (R&D Systems Cat#1506-D4/CF) (human, UniProt Q9NR61 27-524).
T2 construct: Bought from R&D Systems; also called rHuman DLL4; delta-like protein 4
The test is described as above.

Test [3] addresses T3, rHuman HGF R/c-MET/Fc Chimera, CF (R&D Systems Cat#358-MT/CF) (human, UniProt P08581 25-932).
T3 construct: Bought from R&D Systems; also called HGF R/Fc; hepatocyte growth factor receptor (HGF R/c-Met); not shown: Fc of the bought chimera
Described as above.

In test [4] the target is T4, rHuman Notch-1/Fc Chimera, CF (R&D Systems Cat#3647-TK) (human, UniProt P46531 19-526).
T4 construct: Bought from R&D Systems; not shown: Fc of the bought chimera
The description is as above.

In test [5] the target is T5, rHuman Erythropoietin R/Fc Chimera, CF (R&D Systems Cat#963-ER) (human, UniProt P19235 25-250).
T5 construct: Bought from R&D Systems; also called EPO R/Fc; Epo R/Fc chimera; not shown: Fc of the bought chimera
T5 sequence (looked up): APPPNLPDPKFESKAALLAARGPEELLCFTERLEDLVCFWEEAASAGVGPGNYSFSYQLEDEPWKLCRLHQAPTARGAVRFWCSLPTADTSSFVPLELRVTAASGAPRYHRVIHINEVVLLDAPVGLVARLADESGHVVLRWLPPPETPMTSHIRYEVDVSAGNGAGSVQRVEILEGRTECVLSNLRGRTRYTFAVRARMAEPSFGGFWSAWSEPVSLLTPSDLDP
The test is described as above.

The target in test [6] is T6, rHuman P-Cadherin/Fc Chimera, CF (R&D Systems Cat#861-PC) (human, UniProt P22223 108-654).
T6 construct: Bought from R&D Systems; not shown: Fc of the bought chimera
Described as above.

Test [7] has as its target T7, rHuman EGF R/Fc Chimera, CF (R&D Systems Cat#344-ER) (human, UniProt P00533 25-645).
T7 construct: Bought from R&D Systems; also called epidermal growth factor receptor (EGF R); not shown: Fc of the bought chimera
The test is described as above.

Test [8] addresses T8, rHuman CD44/Fc Chimera, CF (R&D Systems Cat#3660-CD) (human, UniProt P16070 21-220).
T8 construct: Bought from R&D Systems; not shown: Fc of the bought chimera
Described as above.

The target of test [9] is T9, rHuman IGF-1 sR, (IGF-1 sR), CF (R&D Systems Cat#391-GR) (human, UniProt P08069 31-932).
T9 construct: Bought from R&D Systems and called a soluble receptor; also called insulin-like growth factor-1 soluble receptor
The test is described as above.

Test [10] deals with T10, rHuman HGF R/c-MET/Fc Chimera, CF (R&D Systems Cat#358-MT/CF) (human, UniProt P08581 25-932).
T10 construct: Bought reagent; also called HGF R/Fc; hepatocyte growth factor receptor
The experiment in a line: MSD multispot ECL, antigen spotted, Fab 37.2 nM; blank spot 199.

The target of test [11] is T11, rHuman EGF R/Fc Chimera, CF (R&D Systems Cat#344-ER) (human, UniProt P00533 25-645).
T11 construct: Bought reagent; also called epidermal growth factor receptor
The test is described as above.

The target of test [12] is T12, rHuman Notch-1/Fc Chimera, CF (R&D Systems Cat#3647-TK) (human, UniProt P46531 19-526).
T12 construct: Bought recombinant protein; Fc part of the bought chimera not given
The experiment in a line: Multispot ECL (MSD), antigen spotted on plate, Fab 250 nM; blank spot 590.

For test [13], the target named is T13, rHuman IGF-1 sR, CF (R&D Systems Cat#391-GR) (human, UniProt P08069 31-932).
T13 construct: Bought recombinant soluble receptor; also called insulin-like growth factor-1 soluble receptor
Described as above.

For test [14], the target named is T14, rHuman Erythropoietin R/Fc Chimera, CF (R&D Systems Cat#963-ER) (human, UniProt P19235 25-250).
T14 construct: Bought recombinant protein; also called EPO R/Fc; Epo R; Fc part of the bought chimera not given
T14 sequence (looked up): T5 sequence (looked up)
The description is as above.

In test [15] the target is T15, Recombinant Human DLL4 (R&D Systems Cat#1506-D4/CF) (human, UniProt Q9NR61 27-524).
T15 construct: Bought recombinant protein; also called rHuman DLL4; delta-like protein 4
The description is as above.

The target of test [16] is T12, rHuman Notch-1/Fc Chimera, CF (R&D …). The test can be described thus: Multispot ECL (MSD), antigen spotted on plate, Fab 62.5 nM; blank spot 268.
Test [17] addresses T13, rHuman IGF-1 sR, CF (R&D Systems …). Described as above.
Test [18] addresses T14, rHuman Erythropoietin R/Fc Chimera, CF …. The description is as above.
Test [19] has as its target T15, Recombinant Human DLL4 (R&D Systems …). The description is as above.

B1: Fab VH1-46_IGHD3-10*01_IGHJ4*01 & B3_IGKJ1*01 (Fab, V domains shown)
VH: QVQLVQSGAEVKKPGASVKVSCKASGYTFTSYYMHWVRQAPGQGLEWMGIINPSGGSTSYAQKFQGRVTMTRDTSTSTVYMELSSLRSEDTAVYYCAREYYYGSGSYYNDYFDYWGQGTLVTVSS
VL: not shown
notes: Tested as a Fab made in E. coli; VH was cloned into Plasmid A (CH1 constant region, His6 and Flag tags); The kappa VL was cloned into Plasmid C (kappa CL)
Take B1: the ECL signal amounted to 671 in test [1]; 981 in [2]; 839 in test [3]; 958 in [4]; 4890 in test [5]; 827 in test [6]. In addition, the ECL signal in test [7] was 692; in [8] it was 693; in [9], 630.

B2: Fab VH1-46_IGHD6-6*01_IGHJ1*01 & L6_IGKJ1*01 (Fab, V domains shown)
VH: QVQLVQSGAEVKKPGASVKVSCKASGYTFTSYYMHWVRQAPGQGLEWMGIINPSGGSTSYAQKFQGRVTMTRDTSTSTVYMELSSLRSEDTAVYYCAREEYSSSSAEYFQHWGQGTLVTVSS
VL: not shown
notes: Only variable domains are tied to the molecule; Tested as a Fab made in E. coli: heavy chain from Plasmid A (CH1 constant region, His6 and Flag tags), kappa light chain from Plasmid C (kappa CL); also called parent Hit Fab against DLL4; VH1-46_IGHD6-6*01_IGHJ1*01 & L6_IGKJ1*01 (parental)
For the molecule B2, the figures for the ECL signal in test [10] and in [11] were 207 ECL signal and 228 ECL signal, respectively.

B3: Fab VH1-46_IGHD6-13*01_IGHJ4*01 & B3_IGKJ1*01 (Fab, V domains shown)
VH: B2 VH with E100G, S105W, A106Y, E107D, Q110D, H111Y
VL: not shown
notes: Germline Fab made in E. coli; VH was cloned into Plasmid A (CH1, His6 and Flag tags) and the kappa VL into Plasmid C (kappa CL)
In the case of B3, the ECL signal in test [12] was 1240; in test [13], 993; in test [14], 8540; in [15], 1560; in test [16] it was 536; in test [17] it was 491. Also, the ECL signal turned out to be 7750 in [18] and 715 in [19].
